Test results: publication PMC12136491, “Establishment of an efficient one-step enzymatic synthesis of cyclic-2,3-diphosphoglycerate” (Frontiers in Microbiology, 2025)
Several values for one entry are separate records, joined by “and”; a condition that tells them apart may be missing. Equal entries are not always repeated.

Target: the molecule itself
Test: SEC; native molecular mass; Superose Increase 10/300 column, 50 mM MES/KOH (pH 6.5), 400 mM KCl, flow rate 0.5 mL/min, 5 mg of protein loaded

B1: cyclic-2,3-diphosphoglycerate synthetase from Methanothermus fervidus, recombinant, without affinity tag (enzyme, UniProt O93732 1-460, looked up)
chain: MGETKKMICLVDGEHYFPVVKDSIEILDDLEHIDVVAVVFIGGTEKLQIEDPKEYSEKLGKPVFFGPDPKKIPYDVIKKCVKKYNADIVMDLSDEPVVDYTKRFRIASIVLKEGAVYQGADFKFEPLTEYDVLEKPSIKIIGTGKRIGKTAVSAYAARVIHKHKYNPCVVAMGRGGPREPEIVEGNKIEITAEYLLEQADKGVHAASDHWEDALMSRILTVGCRRCGGGMLGDTFITNVKRGAEIANKLDSDFVIMEGSGAAIPPVKTNRQIVTVGANQPMININNFFGPFRIGLADLVIITMCEEPMATTEKIKKVEKFIKEINPSANVIPTVFRPKPVGNVEGKKVLFATTAPKVVVGKLVNYLESKYGCDVVGVTPHLSNRPLLRRDLKKYINKADLMLTELKAAAVDVATRVAIEAGLDVVYCDNIPVVIDESYGNIDDAIIEVVEMAIDDFKNNR
notes: cyclic 2,3-diphosphoglycerate synthetase (cdpgs gene, 1,383 bp) of Methanothermus fervidus, Mfer_0077, CAA70986; calculated molecular mass 50.7 kDa; codon-optimized gene, no tag; also called MfcDPGS; cDPGS
- stoichiometry N: 2 and 4
